# Read-outs that look alike come from different tables or passages of the source.
# Assays:
# [1] = biological target: T1, Neonatal Fc Receptor (FcRn) (UniProt P55899 24-297; P61769 21-119, limits assumed); assay: BIACORE (SPR), antibody immobilized on sensor chip, FcRn injected as analyte
# Procedure: FcRn binding was assessed via BIACORE analysis. […] Various concentrations of analyte (FcRn) were injected for analysis of the association and dissociation properties.
# [2] = biological target: T2, PD-1 protein constitutively expressed on engineered CHO K1 cells (UniProt Q15116 25-288, limits assumed); assay: MSD potency assay: competitive binding on CHO K1 cells expressing PD-1, inhibition of PD-L1-mFc binding, ECL; percent of reference material
# T2 construct: whole, on cells; also called programmed cell death protein 1
# Procedure: (§1) The Meso Scale Discovery (MSD) potency assay employs engineered CHO K1 cells constitutively expressing the PD-1 protein. […] The readout is measured using a specific detection antibody mixture that releases an electrochemiluminescence (ECL) signal that can be quantified.
# [3] = biological target: T1, Neonatal Fc Receptor (FcRn); assay: FcRn binding assay, BIACORE (SPR)
# [4] = biological target: T3, human PD-1 on PD-1 effector cells (Jurkat T cells, Promega #J1155) (human, UniProt Q15116 25-288); assay: cell-based or functional assay
# [5] = biological target: T2, PD-1 protein constitutively expressed …; assay: MSD potency assay: competitive binding on CHO K1 cells expressing PD-1, inhibition of PD-L1-mFc binding, ECL; percent of reference material; remark: listed apart in the source
# Procedure: as §1
# [6] = biological target: T1, Neonatal Fc Receptor (FcRn); assay: FcRn binding assay, BIACORE (SPR); remark: listed apart in the source
# [7] = biological target: T2, PD-1 protein constitutively expressed …; assay: MSD potency assay: competitive binding on CHO K1 cells expressing PD-1, inhibition of PD-L1-mFc binding, ECL; percent of reference material; remark: listed apart in the source
# Procedure: as §1
# [8] = biological target: T1, Neonatal Fc Receptor (FcRn); assay: FcRn binding assay, BIACORE (SPR); remark: listed apart in the source
# [9] = biological target: T3, human PD-1 on PD-1 effector cells …; assay: cell-based or functional assay; remark: listed apart in the source
# [10] = biological target: T3, human PD-1 on PD-1 effector cells …; assay: cell-based or functional assay; remark: listed apart in the source
# [11] = biological target: T3, human PD-1 on PD-1 effector cells …; assay: cell-based or functional assay; remark: listed apart in the source
# [12] = biological target: T2, PD-1 protein constitutively expressed …; assay: MSD potency assay: competitive binding on CHO K1 cells expressing PD-1, inhibition of PD-L1-mFc binding, ECL; percent of reference material; remark: listed apart in the source
# Procedure: as §1
# T2 sequence (Q15116 25-288 limits assumed, change not shown): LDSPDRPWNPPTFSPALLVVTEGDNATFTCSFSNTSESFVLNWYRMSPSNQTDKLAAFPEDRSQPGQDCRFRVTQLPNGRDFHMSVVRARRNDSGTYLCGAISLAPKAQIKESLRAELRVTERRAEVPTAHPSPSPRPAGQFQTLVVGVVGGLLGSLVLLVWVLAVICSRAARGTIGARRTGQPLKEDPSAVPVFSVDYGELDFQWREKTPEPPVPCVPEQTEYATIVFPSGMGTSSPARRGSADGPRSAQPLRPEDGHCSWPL
# T3 sequence (Q15116 25-288): as the sequence (Q15116 25-288 limits assumed, change not shown) above
# T1 sequence (P55899 24-297 limits assumed, chain 1 of 2): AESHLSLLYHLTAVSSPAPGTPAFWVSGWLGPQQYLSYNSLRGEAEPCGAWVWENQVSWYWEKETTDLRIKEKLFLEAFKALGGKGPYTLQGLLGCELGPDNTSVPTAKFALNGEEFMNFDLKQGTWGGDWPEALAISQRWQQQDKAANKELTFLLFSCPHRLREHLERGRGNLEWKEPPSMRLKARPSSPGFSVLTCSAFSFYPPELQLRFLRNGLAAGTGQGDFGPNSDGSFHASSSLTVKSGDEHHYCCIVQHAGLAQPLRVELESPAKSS
# T1 sequence (P61769 21-119 limits assumed, chain 2 of 2): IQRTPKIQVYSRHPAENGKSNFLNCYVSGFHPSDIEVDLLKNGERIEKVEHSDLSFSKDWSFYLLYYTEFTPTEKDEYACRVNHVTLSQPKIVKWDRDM
binder,measurement,setting,value
"Dostarlimab reference material (antibody, human IgG4 S228P, kappa) heavy: not shown light: DIQLTQSPSFLSAYVGDRVTITCKASQDVGTAVAWYQQKPGKAPKLLIYWASTLHTGVPSRFSGSGSGTEFTLTISSLQPEDFATYYCQHYSSYPWTFGQGTKLEIKRTVAAPSVFIFPPSDEQLKSGTASVVCLLNNFYPREAKVQWKVDNALQSGNSQESVTEQDSKDSTYSLSSTLTLSKADYEKHKVYACEVTHQGLSSPVTKSFNRGEC",Kd,[1],1690 nM
"Dostarlimab, thermally degraded, 40° C., 3 weeks (antibody, human IgG4 S228P, kappa, percent of population: Asp 151/167 isomerization 1.1; percent of population: Met 248 oxidation 5.4; Asp 261/266/276 isomerization 2.8; Asn 311 deamidation 6.5; Met 354 oxidation 1.9; Asn 380 deamidation 10.0; Asn 385 deamidation 2.1; Met 424 oxidation 1.7; Asn 430 deamidation 1.2; Lys 443 clipped 97.8, Mixture; HMW 1.4%, acidic peaks 33.8%) heavy: not shown light: DIQLTQSPSFLSAYVGDRVTITCKASQDVGTAVAWYQQKPGKAPKLLIYWASTLHTGVPSRFSGSGSGTEFTLTISSLQPEDFATYYCQHYSSYPWTFGQGTKLEIKRTVAAPSVFIFPPSDEQLKSGTASVVCLLNNFYPREAKVQWKVDNALQSGNSQESVTEQDSKDSTYSLSSTLTLSKADYEKHKVYACEVTHQGLSSPVTKSFNRGEC","Relative Potency, MSD Binding",[2],88%
same,Kd,[3],2250 nM
same,"Relative Potency, Cell-Based Bioassay",[4],94%
"Dostarlimab, AAPH treated, 40° C., 7 days (antibody, human IgG4 S228P, kappa, PTM levels of this sample are not tabulated, 5 mM AAPH; HMW 18.7%; also called AAPH, 40° C., 7 days) heavy: not shown light: DIQLTQSPSFLSAYVGDRVTITCKASQDVGTAVAWYQQKPGKAPKLLIYWASTLHTGVPSRFSGSGSGTEFTLTISSLQPEDFATYYCQHYSSYPWTFGQGTKLEIKRTVAAPSVFIFPPSDEQLKSGTASVVCLLNNFYPREAKVQWKVDNALQSGNSQESVTEQDSKDSTYSLSSTLTLSKADYEKHKVYACEVTHQGLSSPVTKSFNRGEC","Relative Potency, MSD Binding",[5],43%
same,Kd,[6],9690 nM
"Dostarlimab, acid degraded, T0 (exposed to pH 4.0, no incubation) (antibody, human IgG4 S228P, kappa, percent of population: Asn 137 deamidation 1.2; percent of population: Met 248 oxidation 3.8; Asn 311 deamidation 7.1; Asn 380 deamidation 10.1; Asn 385 deamidation 1.5; Lys 443 clipped 97.1, Mixture; HMW 13.4%, basic peaks 13.6%) heavy: not shown light: DIQLTQSPSFLSAYVGDRVTITCKASQDVGTAVAWYQQKPGKAPKLLIYWASTLHTGVPSRFSGSGSGTEFTLTISSLQPEDFATYYCQHYSSYPWTFGQGTKLEIKRTVAAPSVFIFPPSDEQLKSGTASVVCLLNNFYPREAKVQWKVDNALQSGNSQESVTEQDSKDSTYSLSSTLTLSKADYEKHKVYACEVTHQGLSSPVTKSFNRGEC","Relative Potency, MSD Binding",[7],99%
same,Kd,[8],2060 nM
same,"Relative Potency, Cell-Based Bioassay",[9],109%
"Dostarlimab, acid degraded, pH 4.0, 25° C., 3 weeks (antibody, human IgG4 S228P, kappa, percent of population: Asn 137 deamidation 1.2; percent of population: Met 248 oxidation 3.1; Asp 261/266/276 isomerization 3.0; Asn 311 deamidation 7.2; Asn 380 deamidation 9.7; Asn 385 deamidation 1.8; Asp 395/397/409 isomerization 2.7; Asn 430 deamidation 1.0; Lys 443 clipped 97.0, Mixture; HMW 15.2%, basic peaks 34.1%; also called Acid Hydrolysis) heavy: not shown light: DIQLTQSPSFLSAYVGDRVTITCKASQDVGTAVAWYQQKPGKAPKLLIYWASTLHTGVPSRFSGSGSGTEFTLTISSLQPEDFATYYCQHYSSYPWTFGQGTKLEIKRTVAAPSVFIFPPSDEQLKSGTASVVCLLNNFYPREAKVQWKVDNALQSGNSQESVTEQDSKDSTYSLSSTLTLSKADYEKHKVYACEVTHQGLSSPVTKSFNRGEC","Relative Potency, MSD Binding",[7],88%
same,Kd,[8],1980 nM
same,"Relative Potency, Cell-Based Bioassay",[9],125%
same,Relative Potency (Potency by cell-based bioassay),[10],125%
"Dostarlimab, AAPH treated, 40° C., 5 days (antibody, human IgG4 S228P, kappa, V domains shown, percent of population: Trp 50 oxidation 86.8; PTM levels of this sample are not tabulated, 5 mM AAPH; HMW 16.4%; also called AAPH, 40° C., 5 days) VH: EVQLLESGGGLVQPGGSLRLSCAASGFTFSSYDMSWVRQAPGKGLEWVSTISGGGSYTYYQDSVKGRFTISRDNSKNTLYLQMNSLRAEDTAVYYCASPYYAMDYWGQGTTVTVSS VL: DIQLTQSPSFLSAYVGDRVTITCKASQDVGTAVAWYQQKPGKAPKLLIYWASTLHTGVPSRFSGSGSGTEFTLTISSLQPEDFATYYCQHYSSYPWTFGQGTKLEIKR","Relative Potency, MSD Binding",[5],47%
same,"Relative Potency, Cell-Based Bioassay",[11],5%
"Dostarlimab, sustained agitation, 300 rpm, 25° C., 3 weeks (antibody, human IgG4 S228P, kappa, V domains shown, all PTM levels within analytical variability of the control) VH: EVQLLESGGGLVQPGGSLRLSCAASGFTFSSYDMSWVRQAPGKGLEWVSTISGGGSYTYYQDSVKGRFTISRDNSKNTLYLQMNSLRAEDTAVYYCASPYYAMDYWGQGTTVTVSS VL: DIQLTQSPSFLSAYVGDRVTITCKASQDVGTAVAWYQQKPGKAPKLLIYWASTLHTGVPSRFSGSGSGTEFTLTISSLQPEDFATYYCQHYSSYPWTFGQGTKLEIKR",Relative Potency (Potency by cell-based bioassay),[10],86%
"Dostarlimab, H2O2 treated, 25° C., 1 week (antibody, human IgG4 S228P, kappa, V domains shown, percent of population: Asn 137 deamidation 1.3; percent of population: Met 34 oxidation 14.0; Met 103 oxidation 64.9; Met 248 oxidation 98.6; Asn 311 deamidation 7.0; Met 354 oxidation 99.8; Asn 380 deamidation 10.9; Asn 385 deamidation 1.8; Met 424 oxidation 98.0; Lys 443 clipped 98.0, 0.1% (v:v) H2O2; also called H2O2, 25° C., 1 week) VH: EVQLLESGGGLVQPGGSLRLSCAASGFTFSSYDMSWVRQAPGKGLEWVSTISGGGSYTYYQDSVKGRFTISRDNSKNTLYLQMNSLRAEDTAVYYCASPYYAMDYWGQGTTVTVSS VL: DIQLTQSPSFLSAYVGDRVTITCKASQDVGTAVAWYQQKPGKAPKLLIYWASTLHTGVPSRFSGSGSGTEFTLTISSLQPEDFATYYCQHYSSYPWTFGQGTKLEIKR","Relative Potency, MSD Binding",[12],79%
